The nature of the data set: soluble on expression in E. coli; label from the status in PepcDB or PDB records.
Take “MDMTDMTTTGSATEAATAAASSTPLPTFGQSLTEQLTPILGDAETQQLASLIAHLPTIKGQTDEQSIALYVDTLTQLKEKNSVFSGAALSESASIWMRSLQRVSSNGKMDSAELATQMNNALASQFQTWFADQLTDKVDSSLPTQFVSQFQLGTESTQAQQIAKLSAEELKSATGDIASFVDDLARQMSSSVVRESASSFLRNAFAHLPSMNLAQLKASDFLLTEANFVTNVSTQLQNVFKQIGITLTKDVADELAKRITWTPGISKQQLSEVLSEMATQVKGQFTAAYGETAGTENLRKALDAIIKSSDSLTLSSLFANFAVSLIHTEIDAFYNDKAIADIQKTQISADQAELIKNNTERDIRFQFEKMLKGESTGASFIERYETLRKNL”: the “soluble on expression in E. coli” value was “not soluble”.

With “MDTPRPQLLDFQFHQNNDSFTLHFQQRLILTHNKDNPCLWIGSGIADIDMFRGNFSIKDKLQEKIALTDAIVSQSPDGWLIHFSRGSDISATLNISADDQGRLLLELQNDNLNHNRIWLRLAAQPEDHIYGCGEQFSYFDLRGKPFPLWTSEQGVGRNKQTYVTWQADCKENAGGDYYWTFFPQPTFVSTQKYYCHVDNSCYMNFDFSAPEYHELALWEDKATLRFECADTYISLLEKLTALLGRQPELPDWIYDGVTLGIQGGTEVCQKKLDTMRNAGVKVNGIWAQDWSGIRITSFGKRVMWNWKWNSENYPQLDSRIKQWYQEGVQFLAYINPYVASDKDLCEEAAQHGYLAKDASGGDYLVEFGEFYGGVVDLTNPEAYAWFKEVIKKNMIELGCGGWMADFGEYLPTDTYLHNGVSAEIMHNAWPALWAKCNYEALEETGKLGEILFFMRAGSTGSQKYSTMMWAGDQNVDWSLDDGLASVVPAALSLAMTGHGLHHSDIGGYTTLFEMKRSKELLLRWCDFSAFTPMMRTHEGNRPGDNWQFDGDAETIAHFARMTTVFTTLKPYLKEAVALNAKSGLPVMRPLFLHYEDDAHTYSLKYQYLLGRDILVAPVHEEGRSDWTLYLPEDNWVHAWTGEAFRGGEVTVNAPIGKPPVFYRADSEWAALFASLNSI”, the “soluble on expression in E. coli” value is reported as “not soluble”. On to “TNADYPALYLANFLLGTSETSRLWHRVRETEGLSYNVRSNLSVSSYEPSANWTIYAIYAPQNRARLEKAISEELARALKDGFTDQEVRDGVVALLNYRNLARAQDDVLADTWVNYMQTGRSFQWSADMDRKLEALTPDQVNAALRKYLKPDAFSTAVAGDFTKKSAP”, for which the “soluble on expression in E. coli” value is recorded as “not soluble”.

Turning to “SMFNNELMADVHFVVGPPGATRTVPAHKYVLAVGSSVFYAMFYGDLAEVKSEIHIPDVEPAAFLILLKYMYSDEIDLEADTVLATLYAAKKYIVPALAKACVNFLETSL”, the “soluble on expression in E. coli” value was “soluble”. Next, “MSLITHISPLGSMDMLSQLEVDMLKRTASSDLYQLFRNCSLAVLNSGSLTDNSKELLSRFENFDINVLRRERGVKLELINPPEEAFVDGRIIRALQANLFAVLRDILFVYGQIHNTVRFPNLNLDNSVHITNLVFSILRNARALHVGEAPNMVVCWGGHSINENEYLYARRVGNQLGLRELNICTGCGPGAMEAPMKGAAVGHAQQRYKDSRFIGMTEPSIIAAEPPNPLVNELIIMPDIEKRLEAFVRIAHGIIIFPGGVGTAEELLYLLGILMNPANKDQVLPLILTGPKESADYFRVLDEFVVHTLGENARRHYRIIIDDAAEVARQMKKSMPLVKENRRDTGDAYSFNWSMRIAPDLQMPFEPSHENMANLKLYPDQPVEVLAADLRRAFSGIVAGNVKEVGIRAIEEFGPYKINGDKEIMRRMDDLLQGFVAQHRMKLPGSAYIPCYEICTEGHHHHHH”: “soluble”. As for “MGHHHHHHSHMHGSPVEVKIQSRSSPPTMPPLPPINPGGPRPVSFTPTALSNGINHSPPTLNGAPSPPQRFSNGPASSTSSALTNQQLPATCGARQLSKLKRFLTTLQQFGNDISPEIGEKVRTLVLALVNSTVTIEEFHCKLQEATNFPLRPFVIPFLKANLPLLQRELLHCARAAKQTPSQYLAQHEHLLLNTSIASPADSSELLMEVHGNGKRPSPESCIIHLKSMGVASRHEYFSGTLQMPAHPVRNSTLENLWVDCSRSLRSTVLPFP”, the entry is “not soluble”; as for “MGSDKIHHHHHHMPVDSKHPLWLANQPRWERCRTALQGRDAVHAAGEKYLPKLAGQDKAEYDAYKGRAMFYGATARTEEALIGMVFRKEPTVTLPAALQPMIEDADLAGTPVDTFIENVTKEVIDVTRVGVLVDYPVASGEFMTVGQAQAAGMRPYLATYKAEAIINWRTARVRGVNQLVLVVLAECYTDPKDEFTAEEKTQYRVLDLVDGFYRVRIYRTDLNTPAFEYTPMMNGKRLPYIPFVLIGRNGEAIDPQKPVLLDLVDVNMSHYRGTADYEHALHFTALPTAVVIGHELKEGQALKIGSSEAWVFTDPQADAKYLEFSGQGLDSIKVSLERKEGMMATLGARILAPEKRDAEAAETAKIHRAGENSVLGGIALGVGRSLAKAFRWAAEWAGAGSGTVEVKLNTEFFPAGLTAQDLTALVGALQAAAISPQTFYDNMRRGSIIDDGVTFEEEQDRIEAAGPALGTLGGQDVKPANGAV”, “not soluble”. “MSVNNIDQLLGELKSAAALASGKQAPAAQQTPQVDFSDVLKSTIEQVNSAQQTSEEMQKQFQLGDNKEVNLQDVMMSLQKASLSFQTMVQARNKLVSAYQEIMNTQV”: the “soluble on expression in E. coli” value is “not soluble”. Next, “SMCPGCGCGRIIHLGLGTEQVEAYVREHFPHARVDRMDRDTTARRGGHARILRKVAERQTDILIGTQMVAKGHDFPGITLVGILSVESTLNIPDYRSAERTFQLVTQLIGRAGRGDDPGRVLIQSLNP”: “not soluble”; “QGALYLVPTPIGNLEDMTFRAIRMLKEADIIAAEDTRNTVKLLNHFEITTRMTSYHQFTKENKEDNIIQRMLDGEVVALVSDAGMPSISDPGYELVQNALNANIPVIPLPGA”: “not soluble”. Turning to “MAHHHHHHMDAPVNVFLRFGLSHSERLNHLLERVGTAQAAFRIVGPRQQEGVARTPAHPHDGADCARVGAPFSVHSGSCSHTCKGEAHDELCASLARLPPLPSPPPASHTCYCLHRTRFRCFCFPSPSLLQRRTLGGGGIGVGRAADVQHPFNGQEPALSVYFTHCHAGLRRTSPRCLISYCGRVSSLRFAFPLGDQVTFFVPLFHTDTSSMGTTHEYEPPVAMKPLEELTDADRREMRDLGIGEGMFNCILTSCMKFALSGGWSVRKHDAKYDIVWETKPSQNSNKQAMRFTAKVPNCNTGSLEAILVADEYLEDDPNVSYMYKYDRLLQQNHAEKRIAGNVTVQSTHYGAPVMFVAPRHIISYVTLGALLTPAQQKELWIRPTGLRDQLADAERKDDLMAFTQCCIDYTGDAVELRKGSERGHVYSYSLLGQEEPDGSMTVTMTLDIDPAGKLPAKVVDMSSDEQHKKMQRIVELLKAKGPQPHLCSVYQNTRDFPFRNPSKGEGEGKRS”, the “soluble on expression in E. coli” value is “soluble”. As for “GPTTPVPVSGSLEVKVNDWGSGAEYDVTLNLDGQYDWTVKVKLAPGATVGSFWSANKQEGNGYVIFTPVSWNKGPTATFGFIVNGPQGDKVEEITLEINGQVI”, the entry is “soluble”. For the sequence “MSLQMKPEDILENIFYFRVCSYTEQIALVNHLEKFISENKDVKVVIVDSITFHFRQDYDDLAQRTRVLSEMALKFMKLAKKFSLAVVLLNQVTTKFSEGSFQLALALGDSWSHSCTNRVILYWNGDERYAYIDKSPSLPSASASYTVTSRGLRNSSEGHHHHHH”, the “soluble on expression in E. coli” value was “not soluble”. Next, “AIASETISRVRQLTEKGAKMEGWDDCWKAGLTPWDRGSSLPVLCELCKEDALPKGYALVPGCGRGYDVLTLASESRVAIGLDCSEEAKKQAEQVRKFSVVDNCQLKEIEAEGF”: “soluble”; “MVLNIKRASSLDGATINVQDVLKPFDHQVGGHTPFTSLPNGHLLKPCEEREILFYQKMPKILKSIAPLCCSTIQGSSVSTLDDSCSNCRHHQLENVVIPESIEGSPILNKRKLSKNFIVLSDLTYRMKSPRILDLKLGTRQHGDQATVSKIACMTAKCQATTSATLGIRLCGMKIPFLEQNSQNFAPNFAPNSAAPNFAPKSEISINKYMGRSMDKTDLFLAVKQFFDVPEAVLEEVERRLLGIRDVLCGADGVRLFGASLLIVIESNFSDSQLPIDNLVRIKVVDFANATFGGLQGDSFYDGRDDGSILGLETLLEIVKGKN”: “not soluble”. As for “GPGSMEAGGDDLFVINDVEADQMEEVRDARPVEQAQETEADVMESVKGLVPLCVQHAQGPQLSSATFGYDIALMAKRPWAEPGAKLSDYFNYGFNEQSWRVYCAMQEKGEESLLANATAVLQKLELAARPG”, the entry is “soluble”; as for “MSLQEVKKTYFVSKPGTLISMMTEEEANQVTHLTLTGKINAVDFRHLRDEFKNLQVLDIANASISMYSGKEGTYPDKFYIYMPNFVPAYAFCKMENGTAKGKSTLKKIILSEKIKNIEDAAFMGCENLNICQIKKKTPPNLLPEALADSITAIFVPLGASDEYRLKNRWDNFAFIEGEPLEAKIEVGALSTLENEIQKAGLQPKEINFLTIEGKLDAADFKLIRDYMPNLVAVDIEKTNATAIPDFTFSQKKYLLRIRLPHGLKSIGQRAFSNCGRLCGTVELPESITAIEYGAFMGCDRLRYVVAHGDKITTIGDNLFGEGKNKLIYKREGHHHHHH”, “soluble”; as for “MSTGTPTTQKVVKTSIRLGPVNPPTPTRNTQGGHGFSAEFLEYRRRRQERHTVRLAKLPNETLIIGGANPFDARNVPEAIKKFRDLVDEKIGDKVHKKDANKSKIVFREEEEETQNGTITID”, “not soluble”. Next, “MSLKIFDAHCDVLLQLWSAQGRKDFKHDSQLHITFEQLKRRKGSIQCFAIYVPETVAYENRFEVALQMVDIFYNEILSLPGVKFIQTKDDINMLKQDEIGAILTLEGCEAIGKDAMKIRLLYRLGVRSFGLTWNYANLLADGALETRGAGLTTSGKHVVQELNALHVWTDVSHLNERSFWDVIEIAKNPIASHSNCMKLCQHPRNLNDEQLKALIKRNGMIGVTFVPQFLTNEKQANVADIIRHIEYICSLGGENNIGFGSDFDGILETVVNVSAYRDYENVVNELCKHYAASTVERFLYDNFVEHISEGHHHHHH”: “not soluble”; “MGSDKIHHHHHHMTVLIKEEDFIQSIADGIQFISYYHPVDYIRHLARAYEREESPAARDAMAQILTNSRMCAEGKRPLCQDTGIVNVFLKVGMNVRFDTQRTLQELCDEGVRRGYLNPDNPLRASVLDDPLFARKNTRDNTPCILHVELVPGDTVDVQVASKGGGSENKSKFVMLNPSDSLVDWVLKTVPTMGAGWCPPGMLGIGVGGTAEKAMLMAKQSLMEDIDMYELLARGPQSKLEELRIELYEKVNALGIGAQGLGGLTTVLDVKISTFPTHAASKPVAMIPNCAATRHAHFVLDGSGPARLDPPSLSEWPEVHWAPDYNKSRQVDLDTLTKEEVASWKPGQTLLLSGKMLTGRDAAHKRIQDMLSKGESLPVDFTNRVIYYVGPVDPVRDEVVGPAGPTTATRMDKFTDMMLAQTGLISMIGKSERGPVAIESIRKHGSAYLMAVGGAAYLVSKAIRNAKVLAFEDLGMEAIYEFDVKDMPVTVAVDSQGTSVHTTGPKEWQARIGKIPVAVA”: “not soluble”; “MSLKSLEIFSGAGGLAKGLELAGFQHASFIELNKDACNSLRSNFNPKLVYQGDVADFDLSSQEGIEVIAGGPPCQPFSLGGKHLAHEDRRDMFPHAVRYVEYYRPKAFIFENVKGLLRKSFADYFEYILLRLTYPNLGILQNEDWKGHLTRLKEIEFNLYKGIKYKVSYQLLNAADYGVPQKRERVVIVGIRADLDIDWKFPKRTHSEDRLNWEKYVTGEYWEKHNEPKRFNKDIAEKLQKKYGIFEPEKKPWQTVRDTLSDIPHPLGNHKITGHEYRDGARIYPGHTGSGIDEPSKTIKAGGHGVPGGENMIRYDDGTVRYFTSYEAKLLQTFPEEFVISGAWGEAMRQIGNAVPVKLSEILGKHLMGVLSEKSSLHNEGHHHHHH”: “soluble”.

For the origin of these results see the DeepSol protein solubility set.
